Laboratory results from paper PMC1540728.

T1: hnRNP F qRRM3 (Homo sapiens, UniProt P52597 277-381)
T1 sequence: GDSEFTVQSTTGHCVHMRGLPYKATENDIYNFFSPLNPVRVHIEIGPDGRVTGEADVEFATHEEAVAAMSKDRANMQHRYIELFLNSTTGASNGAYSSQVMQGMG

T2: hnRNP F qRRM2 (Homo sapiens, UniProt P52597 103-194)
T2 sequence: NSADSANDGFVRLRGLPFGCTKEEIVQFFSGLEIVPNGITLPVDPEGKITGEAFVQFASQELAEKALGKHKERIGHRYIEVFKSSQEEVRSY

T3: hnRNP F qRRM1-2 (Homo sapiens, UniProt P52597 1-194)
T3 sequence: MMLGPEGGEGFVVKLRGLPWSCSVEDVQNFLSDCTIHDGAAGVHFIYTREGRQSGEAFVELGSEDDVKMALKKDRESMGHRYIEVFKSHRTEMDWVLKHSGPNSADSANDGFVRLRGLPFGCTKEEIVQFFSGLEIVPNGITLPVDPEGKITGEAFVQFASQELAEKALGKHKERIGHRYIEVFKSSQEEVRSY


What was measured:
Assay in all cases: NMR titration
hnRNP F qRRM3 = biological target: T1, hnRNP F qRRM3
hnRNP F qRRM2 = biological target: T2, hnRNP F qRRM2
hnRNP F qRRM1-2 = biological target: T3, hnRNP F qRRM1-2

Row | Binder | binding result (hnRNP F qRRM2) | further results
1 | CUGGGGU (structured_RNA) [Bcl-x third G-tract RNA] |  | binding result (hnRNP F qRRM3): no binding
2 | UGCAUG (ssRNA) [Fox RNA-binding site UGCAUG] | no binding | 
3 | GGG (ssRNA) [GGG RNA] | binds | 
4 | CGGGAUGGGGUA (structured_RNA) [Bcl-x G-tracts 1-2 RNA] |  | binding result (hnRNP F qRRM1-2): binds
